# Measured values from patent US20100210509A1, “LONG ACTING HYALURONIC ACID - PEPTIDE CONJUGATE” (Postech Academy-Industry Foundation, priority 2007, published 2010).
# Where no end group is shown, it is not given here. [ ]: non-standard residue; d: D form.
# Legend:
# FPRL1 receptor [1] = molecular target: T1, FPRL1 receptor (Homo sapiens, UniProt P25090); test: pERK level by Western blot in FPRL1 over-expressing RBL-2H3 cells after stimulation; assay type: cell-based
# T1 construct: expressed in transfected cells; host or cells: RBL-2H3 (rat basophilic leukemia) cells over-expressing FPRL1, kept under G418 selection
# T1 sequence (P25090 1-351): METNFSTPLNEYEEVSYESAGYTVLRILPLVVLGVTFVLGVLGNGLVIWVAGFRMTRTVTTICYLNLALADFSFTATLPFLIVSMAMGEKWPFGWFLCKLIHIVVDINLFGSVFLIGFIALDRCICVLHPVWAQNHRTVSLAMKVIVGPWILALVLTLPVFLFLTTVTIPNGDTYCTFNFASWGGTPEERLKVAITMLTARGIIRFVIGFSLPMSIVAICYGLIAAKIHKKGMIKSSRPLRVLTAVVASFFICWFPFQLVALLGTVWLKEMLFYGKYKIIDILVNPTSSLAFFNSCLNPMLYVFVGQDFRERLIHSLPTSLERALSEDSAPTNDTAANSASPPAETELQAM
# Experimental: In order to investigate the effect of HA conjugation on the signal transduction activity of peptide, three kinds of samples were prepared, the raw peptide, conjugate of peptide with HA-AMEA, and conjugate of peptide with HA-AEMA after hyaluronidase treatment. In the conjugate samples, the number of peptide molecules per single HA derivative chain was 5, 8, and 23, respectively. Each sample of conjugate of peptide with HA-AEMA (0.4 mL, 1 mg/mL) was divided into two aliquots. One aliquot was mixed with 0.2 mL of hyaluronidase solution (400 units/mL) and the other was mixed with 0.2 mL of water. Then, the solutions were incubated at 37° C. overnight for the complete enzymatic degradation of HA. Three replicates were carried out for the following bioactivity tests measuring the intracellular level of pERK and calcium ion. […]
# The prepared cells were aliquoted into 1×10^6 cells and stimulated with a control (no treatment), peptide (CWRYMVm, SEQ ID NO: 5), HA-AEMA, the mixture of peptide and HA-AEMA, and three kind of conjugate samples with and without hyaluronidase treatment. […] Protein concentrations in the lysates were determined by Bradford protein assay. […]
# The data are expressed as means±S.D. from several separate experiments. […]
# [2] = Dissolution of peptide in serum; assay type: physicochemical; conditions: fetal bovine serum
# Experimental: In order to investigate the effect of HA conjugation on the serum stability of peptide, raw peptide and three kinds of conjugate samples were dissolved in 0.5 mL of water and mixed with 0.5 mL of fetal bovine serum (FBS), respectively. In conjugates of peptide with HA derivative, the number of peptide molecules per single HA chain was 5, 19, and 33, respectively. […] Then, the solutions were incubated at 37° C. for 96 hours. The remaining amount of peptide was measured by GPC analysis after incubation for 12, 24, 48, 72, and 96 hours. Three replicates were carried out.
# FPRL1 receptor [3] = molecular target: T1, FPRL1 receptor; test: Co-treatment with antagonistic peptide, pERK Western blot in RBL-2H3/FPRL1 cells; assay type: cell-based; conditions: RBL-2H3/FPRL1 cells stimulated 5 min with CWRYMVm or HA-CWRYMVm conjugates (5, 8, 23)
# Experimental: In order to investigate the effect of co-treatment with antagonistic peptide (C—WRWWWW (SEQ ID NO: 6), WRW4 (SEQ ID NO: 2) on the binding characteristics of the conjugates of peptide with HA-AEMA to FPRL1 receptor, the RBL-2H3/FPRL1 cells were stimulated with a control (no treatment), peptide (CWRYMVm, SEQ ID NO: 5), and three kinds of conjugate samples for 5 minutes in the presence and absence of C-WRWWWW (SEQ ID NO: 6), ([…], competitor for FPRL1 binding). The other procedures including electrophoresis and immunoblot analysis for Western blot was repeated in the same way as described above.
"pERK level normalized to peptide alone (100%) (FPRL1 receptor [1]; RBL-2H3/FPRL1 cells, 5 min stimulation, same peptide amount, without hyaluronidase treatment) [%]","stimulation time of highest elevation of intracellular pERK level (FPRL1 receptor [1]; stimulation up to 30 min, Western blot) [min]",intracellular level of pERK on co-treatment with antagonistic peptide (FPRL1 receptor [3]),Substance,dissolution in serum [2]
100,5,–,"Cys-Trp-Arg-Tyr-Met-Val-DMet (CWRYMV[dM]; also: conjugated with hyaluronic acid derivative) [CWRYMVm, Agonistic peptide for FPRL1 receptor; WRYMVm modified with cysteine]",not dissolved in serum completely
–,–,did not increase at all,Trp-Arg-Trp-Trp-Trp-Trp (WRWWWW; also: conjugated with hyaluronic acid derivative) [FPRL1 antagonist peptide],–
